# Residue numbers refer to the chain shown, from its start.
# B1: H1-L1 (humanized anti-YKL-40 antibody) (antibody, V domains shown)
# VH: QIQLVQSGSELKKPGASVKISCKASGYTFTNYGMNWVRQAPGQGLEWMGWINTYTGEPTYADDFKGRFVFSLDTSVSTAYLQISSLKAEDTSVYFCARLGYGKFYVMDYWGQGTSVTVSS
# VL: DVVMTQSPLSLPVTLGQPASISCRSSQSLVHSNGNTYLNWYQQRPGQSPRLLIYKVSNRFSGVPDRFSGSGSGTDFTLKISRVEAEDVGVYFCSQSTHVTWTFGGGTKLEIK
# notes: Humanized, kappa light chain, human IgG (detected with goat anti-human IgG-HRP; the PK assay uses an anti-IgG1 capture antibody); also called anti-YKL-40 H1-L1
# B2: H4-L1 (humanized anti-YKL-40 antibody) (antibody, V domains shown)
# VH: B1 VH with E46K
# VL: B1 VL
# notes: Humanized, human IgG (detected with goat anti-human IgG-HRP)
# B3: H11-L1 (humanized anti-YKL-40 antibody) (antibody, V domains shown)
# VH: QIQLVQSGPEVKQPGASVKISCKASGYTFTNYGMNWVKQAPGQGLKWMGWINTYTGEPTYAQGFTGRFVFSLDTSASTAYLQISSLKAEDMSTYFCARLGYGKFYVMDYWGQGTSVTVSS
# VL: B1 VL
# notes: Humanized, human IgG
# B4: H11-L5 (humanized anti-YKL-40 antibody) (antibody, V domains shown)
# VH: B3 VH
# VL: B1 VL with V2I, S7T, P12S, L15P, R24K, N39H, Q42L, R44K, R50Q, F92Y
# notes: Humanized variant
# B5: H12-L8 (humanized anti-YKL-40 antibody) (antibody, V domains shown)
# VH: B3 VH with T28S, N31T, K46E, Q62D, G63D, T65K
# VL: B1 VL with N39H, F92Y
# notes: Humanized variant
# B6: H2-L1 (humanized anti-YKL-40 antibody) (antibody, V domains shown)
# VH: B1 VH with D62Q, D63G, K65T
# VL: B1 VL
# notes: Humanized variant
# Biological target: T1, murine BRP-39 (murine homologue of CHI3L1/YKL-40) (murine, UniProt Q61362 30-389, limits assumed)
# T1 construct: also called murine YKL-40
# Experiment: titration ELISA
# T1 sequence (Q61362 30-389 limits assumed): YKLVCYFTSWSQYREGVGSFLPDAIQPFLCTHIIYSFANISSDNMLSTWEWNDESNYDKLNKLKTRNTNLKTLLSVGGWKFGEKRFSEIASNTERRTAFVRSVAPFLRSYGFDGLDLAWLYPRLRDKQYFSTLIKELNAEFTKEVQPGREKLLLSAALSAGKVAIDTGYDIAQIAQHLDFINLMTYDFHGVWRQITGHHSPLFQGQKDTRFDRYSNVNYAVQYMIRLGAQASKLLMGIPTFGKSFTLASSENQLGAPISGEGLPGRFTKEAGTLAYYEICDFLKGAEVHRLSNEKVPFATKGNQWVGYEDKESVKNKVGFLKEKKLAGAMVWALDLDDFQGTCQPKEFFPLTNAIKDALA
row,fold difference in affinity among species (human highest) [fold],Binder
1,≤ 2,B1
2,≤ 2,B2
3,≤ 2,B3

# Biological target: T2, primate (Cynomolgus monkey) CHI3L1/YKL-40 (Cynomolgus monkey, UniProt A0A7N9DGM0 12-373)
# T2 construct: also called primate CHI3L1/YKL-40
# Experiment: titration ELISA
row,fold difference in affinity among species (human highest) [fold],Binder
1,≤ 2,B1
2,≤ 2,B2
3,≤ 2,B3

# Biological target: T3, human CHI3L1/YKL-40 (human, UniProt P36222 22-383)
# T3 construct: also called human YKL-40
# Experiment: titration ELISA against human YKL-40
# T3 sequence (P36222 22-383 limits assumed): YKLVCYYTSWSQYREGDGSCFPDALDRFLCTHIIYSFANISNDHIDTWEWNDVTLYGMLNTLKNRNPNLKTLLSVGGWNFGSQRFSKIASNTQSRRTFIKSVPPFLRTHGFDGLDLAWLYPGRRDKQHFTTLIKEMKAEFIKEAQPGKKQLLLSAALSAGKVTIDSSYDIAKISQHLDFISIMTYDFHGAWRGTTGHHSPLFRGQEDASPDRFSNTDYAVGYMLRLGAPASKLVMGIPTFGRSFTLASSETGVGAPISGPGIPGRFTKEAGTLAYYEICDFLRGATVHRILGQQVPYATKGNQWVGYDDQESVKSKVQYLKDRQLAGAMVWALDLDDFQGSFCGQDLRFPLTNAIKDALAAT
row,binding result,Binder
1,binds,B1
2,binds,B4
3,binds,B2
4,binds,B5
5,binds,B6
6,binds,B3

# Biological target: T1, murine BRP-39 (murine homologue of …)
# Experiment: titration ELISA against murine BRP-39
row,binding result,Binder
1,binds,B4
2,binds,B5
3,binds,B6

# Reference: patent publication US20200262930A1 (YALE UNIVERSITY, published 2020)
